T1: GFP-STX12 wild type (Syntaxin-12) (human, UniProt Q86Y82 1-276)
T1 construct: Syntaxin-12 (STX12), human; After IGF1 stimulation about 20% of the stably expressed protein was phosphorylated (Ser139) by phos-tag analysis; also called GFP-STX12 WT; wild-type STX12
T1 sequence (looked up): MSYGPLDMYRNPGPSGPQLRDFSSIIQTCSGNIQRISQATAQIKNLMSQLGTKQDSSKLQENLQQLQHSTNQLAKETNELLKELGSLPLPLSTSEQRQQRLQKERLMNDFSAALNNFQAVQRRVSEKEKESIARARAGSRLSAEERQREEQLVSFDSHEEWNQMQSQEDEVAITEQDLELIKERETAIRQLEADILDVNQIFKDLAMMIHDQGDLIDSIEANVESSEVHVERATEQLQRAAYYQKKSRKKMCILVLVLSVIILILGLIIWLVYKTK


target: T1, GFP-STX12 wild type (Syntaxin-12); assay: co-IP; GFP-STX12 WT or S139A immunoprecipitated from 2 mg lysate with GFP-Trap beads, 4°C, 4 h; two washes with lysis buffer with 0.45 M NaCl, one with 0.15 M NaCl; immunoblot of endogenous partners; cells serum-starved overnight, ± 14H (1 µM, 1 h), ± IGF1 (50 ng/ml, 15 min); conditions: partners not purified

| fold increase of the amount co-immunoprecipitated, IGF1-stimulated against unstimulated cells | Binder |
| --- | --- |
| ~2 fold | VAMP4 (natural protein, human (endogenous in HEK293), UniProt O75379 1-141, looked up, VAMP4, endogenous in HEK293 cells, detected by immunoblot with anti-VAMP4; also called v-SNARE protein VAMP4; source: endogenous, HEK293 lysate) MPPKFKRHLNDDDVTGSVKSERRNLLEDDSDEEEDFFLRGPSGPRFGPRNDKIKHVQNQVDEVIDVMQENITKVIERGERLDELQDKSESLSDNATAFSNRSKQLRRQMWWRGCKIKAIMALVAAILLLVIIILIVMKYRT |
| ~2 fold | VTI1A (natural protein, human (endogenous in HEK293), UniProt Q96AJ9 1-217, looked up, Vti1a (VTI1A), endogenous in HEK293 cells, detected by immunoblot with anti-VTI1A; source: endogenous, HEK293 lysate) MSSDFEGYEQDFAVLTAEITSKIARVPRLPPDEKKQMVANVEKQLEEAKELLEQMDLEVREIPPQSRGMYSNRMRSYKQEMGKLETDFKRSRIAYSDEVRNELLGDDGNSSENQRAHLLDNTERLERSSRRLEAGYQIAVETEQIGQEMLENLSHDREKIQRARERLRETDANLGKSSRILTGMLRRIIQNRILLVILGIIVVITILMAITFSVRRH |
| ~2 fold | Syntaxin 6 (STX6) (natural protein, human (endogenous in HEK293), UniProt O43752 1-255, looked up, Syntaxin-6 (STX6), endogenous in HEK293 cells, detected by immunoblot with anti-STX6; source: endogenous, HEK293 lysate) MSMEDPFFVVKGEVQKAVNTAQGLFQRWTELLQDPSTATREEIDWTTNELRNNLRSIEWDLEDLDETISIVEANPRKFNLDATELSIRKAFITSTRQVVRDMKDQMSTSSVQALAERKNRQALLGDSGSQNWSTGTTDKYGRLDRELQRANSHFIEEQQAQQQLIVEQQDEQLELVSGSIGVLKNMSQRIGGELEEQAVMLEDFSHELESTQSRLDNVMKKLAKVSHMTSDRRQWCAIAILFAVLLVVLILFLVL |

Source: PMC6824681, “Phosphoproteomics reveals that the hVPS34 regulated SGK3 kinase specifically phosphorylates endosomal proteins including Syntaxin-7, Syntaxin-12, RFIP4 and WDR44” (Biochemical Journal, 2019)
